Test results published in publication doi:10.1101/497024.

Molecular target: HeV PNT3 (aa 200-310 of the Hendra virus P/V protein) (Hendra virus) (UniProt O55778)
Test: SAXS

HeV PNT3 (aa 200-310 of the Hendra virus P/V protein) (from UniProt O55778 200-310) (domain or fragment)
stoichiometry N: 100 monomers
